# Key:
# CD2 (human) = CD2 (human) (UniProt P06729)
# [1] = target: surface Spycatcher fused to the hinge of hCD52 (human); assay: flow cytometry on cells; titration of purified Spytag-mClover3 on CHO-K1 cells transduced with surface Spycatcher; covalent coupling read by mClover3 fluorescence
# Chain of UniProt P06729 (P06729 25-351): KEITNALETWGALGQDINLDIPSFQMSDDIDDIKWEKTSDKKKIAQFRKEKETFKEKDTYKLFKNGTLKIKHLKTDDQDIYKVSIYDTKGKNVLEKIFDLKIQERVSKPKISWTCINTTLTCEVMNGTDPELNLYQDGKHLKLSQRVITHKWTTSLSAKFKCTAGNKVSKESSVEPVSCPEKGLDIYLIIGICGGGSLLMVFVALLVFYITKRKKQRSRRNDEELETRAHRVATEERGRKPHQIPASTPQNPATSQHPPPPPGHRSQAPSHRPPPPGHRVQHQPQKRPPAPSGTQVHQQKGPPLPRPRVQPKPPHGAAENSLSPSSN
substance,measurement,setting,value
full extracellular domain of CD58 fused to a C-terminal Spytag and Histag (from UniProt P19256 29-215) (ligand),"fold improvement of antigen sensitivity, 4-1BB, 1G4 TCR T cells, with the CD2 ligand against pMHC alone",CD2 (human),230 fold
same,"fold improvement of antigen sensitivity, 4-1BB, D52N CAR T cells, with the CD2 ligand against pMHC alone",CD2 (human),11 fold
same,"fold improvement of antigen sensitivity, IL-2, 1G4 TCR T cells, with the CD2 ligand against pMHC alone",CD2 (human),46 fold
same,"fold improvement of antigen sensitivity, IL-2, D52N CAR T cells, with the CD2 ligand against pMHC alone",CD2 (human),3.9 fold
purified mClover3 fused to Spytag,concentration at saturation,[1],1 µM

# — article PMC10897201
